The results in this text go back to paper PMC3953403, “Drosophila SNAP-29 Is an Essential SNARE That Binds Multiple Proteins Involved in Membrane Traffic” (PLoS ONE, 2014).

This experiment has as its target T1, GST-dSNAP-29 (Drosophila, UniProt Q9W1I8 1-284).
T1 construct: Drosophila SNAP-29 (CG11173, ubisnap/usnp), full-length cDNA amplified from EST clone LD17127 and subcloned into pGEX-KG; predicted mass 32 kDa; Vector pGEX-KG; also called GST-SNAP-29; Drosophila SNAP-29; source: coupled to glutathione beads
T1 sequence (looked up): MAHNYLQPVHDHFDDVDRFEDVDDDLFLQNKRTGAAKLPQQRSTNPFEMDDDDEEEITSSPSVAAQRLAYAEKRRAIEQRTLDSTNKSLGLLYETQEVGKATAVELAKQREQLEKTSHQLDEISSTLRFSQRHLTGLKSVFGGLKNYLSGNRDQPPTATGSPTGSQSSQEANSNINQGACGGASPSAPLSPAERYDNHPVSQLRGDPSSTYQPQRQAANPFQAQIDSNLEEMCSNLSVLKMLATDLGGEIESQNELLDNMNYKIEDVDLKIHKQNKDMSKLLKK
Nature of the experiment: pull-down; 0.5 mg GST fusion or GST on 120 uL glutathione beads, incubated with pre-cleared S2 cell lysate (PLC or NP40 lysis buffer, 0.1% gelatin, 0.1% BSA); washes 50 mM HEPES pH 7.5, 150 mM NaCl, 2 mM EDTA; western blot. The following applies: for percent recovered from the lysate: one partner purified.

DAP160, endogenous (natural protein) gave a percent pulled down from the lysate of 15%.

Regarding dEHD1, endogenous (natural protein), the percent pulled down from the lysate was 12%.

B1: dSNAP (Drosophila soluble NSF attachment protein), endogenous (natural protein, Drosophila (endogenous in S2 cells), UniProt Q23983 1-292, looked up)
chain: MGDNEQKALQLMAEAEKKLTQQKGFLGSLFGGSNKVEDAIECYQRAGNMFKMSKNWTKAGECFCEAATLHARAGSRHDAGTCYVDASNCYKKVDVESAVNCLMKSIDIYTDMGRFTMAAKHHQSIAEMYESDPNNLAKSIQHYEQAADYFKGEESVSSANKCMLKVAQYAAQLEDYEKAISIYEQVAASSLESSLLKYSAKEYFFRAALCHLSVDLLNAQHAIEKYAQQYPAFQDSREFKLIKVLCENLEEQNIEGFTEAVKDYDSISRLDQWYTTILLRIKKAADEDPDLR
notes: Drosophila SNAP (soluble NSF attachment protein), endogenous in Schneider S2 cells; also called Drosophila SNAP; source: endogenous, S2 cell lysate
In the case of B1, the “percent recovered from the lysate” value was approximately 7%.

B2: dsyntaxin 16, endogenous (natural protein, UniProt Q9VR90 1-352, looked up)
chain: MTSRNLTEVFVIMRNNASKNRNHYDDRRGSDAERLLKHSVREAEEGLELQDDYGTPPAWLDKFEEAQYTMSKIKPKLDELGSLHARHLLRPAFDDQRDDECDIEVLSQIVSKLITSTHRHIQCVRSSIGVGSKMEQCLTVNAVHCALLQLQELTVKFRASQNAYLLQLNSREERSQKYFDDGGGAGAGDVFTNVELGEQSAENFVDSFDNFLQPPAEGKSGNGYLFEDDEQAIDDHFQRPPASRMTQQQLLLFEEENTRVAQHREQEVTKIVKSIYDLNDIFKDLGHMVQEQGTVLDRIDYNVEQTQTRVSEGLRQLHKAEMYQRKNRKMCVILVLAAVTFFMLLLLILTKL
notes: Drosophila syntaxin 16, endogenous in S2 cells (pull-down) and in embryos (co-IP); also called dSyx16; dSyx 16; source: endogenous, S2 cell lysate; endogenous, Oregon R embryo lysate
Turning to B2, the “percent recovered from the lysate” value stood at 4%.

B3: dsyntaxin1, endogenous (natural protein, UniProt Q24547 1-291, looked up)
chain: MTKDRLAALHAAQSDDEEETEVAVNVDGHDSYMDDFFAQVEEIRGMIDKVQDNVEEVKKKHSAILSAPQTDEKTKQELEDLMADIKKNANRVRGKLKGIEQNIEQEEQQNKSSADLRIRKTQHSTLSRKFVEVMTEYNRTQTDYRERCKGRIQRQLEITGRPTNDDELEKMLEEGNSSVFTQGIIMETQQAKQTLADIEARHQDIMKLETSIKELHDMFMDMAMLVESQGEMIDRIEYHVEHAMDYVQTATQDTKKALKYQSKARRKKIMILICLTVLGILAASYVSSYFM
notes: Drosophila syntaxin 1, endogenous in S2 cells (pull-down) and in embryos (co-IP); also called dSyx1; source: endogenous, S2 cell lysate; endogenous, Oregon R embryo lysate
Regarding B3, the “percent recovered from the lysate” value was determined as 6%.
